Measurements: paper PMC12102759 (2025)

B1: CBL peptide 538-553 (E3 ubiquitin-protein ligase CBL), 16-mer library wild type / YES SH3 (YES1 SH3 domain, residues 90-152) (parent complex)
chain 1: TLRDLPPPPPPDRPYS
chain 2: not shown

Variants of: B1
Experiment: proteomic peptide phage display deep mutational scan (ProP-PD DMS): M13 P8 16-mer library selected against immobilised GST-tagged bait for four days (rounds), NGS of the eluted pools per day and pseudo-replica; bait immobilised on MaxiSorp plates (10 µg), library pre-cleared on GST, 2 h binding at 4 °C, five washes; one round per day, days 1-4; value from days 2 and 3

| Variant | screen value |
| --- | --- |
| chain 1 L5F | 6.9e-05 average fractional NGS count over selection days 2 and 3 (reads of this peptide / all reads for the bait, averaged over … |
| chain 1 L5Q | 0.000137 average fractional NGS count over selection days 2 and 3 (reads of this peptide / all reads for the bait, averaged over … |
| chain 1 L5V | 6.39e-05 average fractional NGS count over selection days 2 and 3 (reads of this peptide / all reads for the bait, averaged over … |
| chain 1 P10L | 0.000964 average fractional NGS count over selection days 2 and 3 (reads of this peptide / all reads for the bait, averaged over … |
| chain 1 P10V | 0.00306 average fractional NGS count over selection days 2 and 3 (reads of this peptide / all reads for the bait, averaged over … |
| chain 1 P10A | 0.000136 average fractional NGS count over selection days 2 and 3 (reads of this peptide / all reads for the bait, averaged over … |
| chain 1 P10Y | 0.00108 average fractional NGS count over selection days 2 and 3 (reads of this peptide / all reads for the bait, averaged over … |
| chain 1 P10E | 0.00012 average fractional NGS count over selection days 2 and 3 (reads of this peptide / all reads for the bait, averaged over … |
| chain 1 P10Q | 0.000423 average fractional NGS count over selection days 2 and 3 (reads of this peptide / all reads for the bait, averaged over … |
| chain 1 P10T | 0.00196 average fractional NGS count over selection days 2 and 3 (reads of this peptide / all reads for the bait, averaged over … |
| chain 1 P10H | 0.00108 average fractional NGS count over selection days 2 and 3 (reads of this peptide / all reads for the bait, averaged over … |
| chain 1 P10R | 0.000614 average fractional NGS count over selection days 2 and 3 (reads of this peptide / all reads for the bait, averaged over … |
| chain 1 P8E | 0.0001 average fractional NGS count over selection days 2 and 3 (reads of this peptide / all reads for the bait, averaged over … |
| chain 1 P8M | 0.000558 average fractional NGS count over selection days 2 and 3 (reads of this peptide / all reads for the bait, averaged over … |
| chain 1 P8T | 0.000116 average fractional NGS count over selection days 2 and 3 (reads of this peptide / all reads for the bait, averaged over … |
| chain 1 P8V | 0.0024 average fractional NGS count over selection days 2 and 3 (reads of this peptide / all reads for the bait, averaged over … |
| chain 1 P8F | 5.53e-05 average fractional NGS count over selection days 2 and 3 (reads of this peptide / all reads for the bait, averaged over … |
| chain 1 P8I | 0.000407 average fractional NGS count over selection days 2 and 3 (reads of this peptide / all reads for the bait, averaged over … |
| chain 1 P8Y | 0.00011 average fractional NGS count over selection days 2 and 3 (reads of this peptide / all reads for the bait, averaged over … |
| chain 1 P8A | 9.08e-05 average fractional NGS count over selection days 2 and 3 (reads of this peptide / all reads for the bait, averaged over … |
| chain 1 P8L | 0.000561 average fractional NGS count over selection days 2 and 3 (reads of this peptide / all reads for the bait, averaged over … |
| chain 1 R13V | 0.000492 average fractional NGS count over selection days 2 and 3 (reads of this peptide / all reads for the bait, averaged over … |
| chain 1 R13Y | 0.000779 average fractional NGS count over selection days 2 and 3 (reads of this peptide / all reads for the bait, averaged over … |
| chain 1 R13Q | 0.000164 average fractional NGS count over selection days 2 and 3 (reads of this peptide / all reads for the bait, averaged over … |
| chain 1 R13A | 0.00128 average fractional NGS count over selection days 2 and 3 (reads of this peptide / all reads for the bait, averaged over … |

| Variant | screen value |
| --- | --- |
| chain 1 R13G | 3.78e-05 average fractional NGS count over selection days 2 and 3 (reads of this peptide / all reads for the bait, averaged over … |
| chain 1 R13N | 0.000641 average fractional NGS count over selection days 2 and 3 (reads of this peptide / all reads for the bait, averaged over … |
| chain 1 R13L | 0.00161 average fractional NGS count over selection days 2 and 3 (reads of this peptide / all reads for the bait, averaged over … |
| chain 1 R13M | 0.000309 average fractional NGS count over selection days 2 and 3 (reads of this peptide / all reads for the bait, averaged over … |
| chain 1 R13E | 0.000127 average fractional NGS count over selection days 2 and 3 (reads of this peptide / all reads for the bait, averaged over … |
| chain 1 R13W | 0.00314 average fractional NGS count over selection days 2 and 3 (reads of this peptide / all reads for the bait, averaged over … |
| chain 1 D12Y | 0.00156 average fractional NGS count over selection days 2 and 3 (reads of this peptide / all reads for the bait, averaged over … |
| chain 1 D12L | 0.00406 average fractional NGS count over selection days 2 and 3 (reads of this peptide / all reads for the bait, averaged over … |
| chain 1 D12S | 0.000329 average fractional NGS count over selection days 2 and 3 (reads of this peptide / all reads for the bait, averaged over … |
| chain 1 D12N | 0.000102 average fractional NGS count over selection days 2 and 3 (reads of this peptide / all reads for the bait, averaged over … |
| chain 1 D12H | 0.00265 average fractional NGS count over selection days 2 and 3 (reads of this peptide / all reads for the bait, averaged over … |
| chain 1 D12M | 0.00124 average fractional NGS count over selection days 2 and 3 (reads of this peptide / all reads for the bait, averaged over … |
| chain 1 D12I | 0.00442 average fractional NGS count over selection days 2 and 3 (reads of this peptide / all reads for the bait, averaged over … |
| chain 1 D12P | 0.00103 average fractional NGS count over selection days 2 and 3 (reads of this peptide / all reads for the bait, averaged over … |
| chain 1 D12K | 0.00012 average fractional NGS count over selection days 2 and 3 (reads of this peptide / all reads for the bait, averaged over … |
| chain 1 P11W | 0.000174 average fractional NGS count over selection days 2 and 3 (reads of this peptide / all reads for the bait, averaged over … |
| chain 1 P11H | 0.000426 average fractional NGS count over selection days 2 and 3 (reads of this peptide / all reads for the bait, averaged over … |
| chain 1 P11L | 0.000447 average fractional NGS count over selection days 2 and 3 (reads of this peptide / all reads for the bait, averaged over … |
| chain 1 P11V | 0.000274 average fractional NGS count over selection days 2 and 3 (reads of this peptide / all reads for the bait, averaged over … |
| chain 1 P11N | 9.7e-05 average fractional NGS count over selection days 2 and 3 (reads of this peptide / all reads for the bait, averaged over … |
| chain 1 P11I | 0.00017 average fractional NGS count over selection days 2 and 3 (reads of this peptide / all reads for the bait, averaged over … |
| chain 1 P11S | 4.62e-05 average fractional NGS count over selection days 2 and 3 (reads of this peptide / all reads for the bait, averaged over … |
| chain 1 P11A | 0.000414 average fractional NGS count over selection days 2 and 3 (reads of this peptide / all reads for the bait, averaged over … |
| chain 1 P11Q | 0.000805 average fractional NGS count over selection days 2 and 3 (reads of this peptide / all reads for the bait, averaged over … |
| chain 1 P11M | 0.000374 average fractional NGS count over selection days 2 and 3 (reads of this peptide / all reads for the bait, averaged over … |

| Variant | screen value |
| --- | --- |
| chain 1 P11F | 0.00176 average fractional NGS count over selection days 2 and 3 (reads of this peptide / all reads for the bait, averaged over … |
| chain 1 P14A | 0.000568 average fractional NGS count over selection days 2 and 3 (reads of this peptide / all reads for the bait, averaged over … |
| chain 1 P14M | 0.00532 average fractional NGS count over selection days 2 and 3 (reads of this peptide / all reads for the bait, averaged over … |
| chain 1 P14G | 0.000593 average fractional NGS count over selection days 2 and 3 (reads of this peptide / all reads for the bait, averaged over … |
| chain 1 P14T | 0.0012 average fractional NGS count over selection days 2 and 3 (reads of this peptide / all reads for the bait, averaged over … |
| chain 1 P14W | 0.00023 average fractional NGS count over selection days 2 and 3 (reads of this peptide / all reads for the bait, averaged over … |
| chain 1 P14E | 0.000212 average fractional NGS count over selection days 2 and 3 (reads of this peptide / all reads for the bait, averaged over … |
| chain 1 P14H | 0.00144 average fractional NGS count over selection days 2 and 3 (reads of this peptide / all reads for the bait, averaged over … |
| chain 1 P14Y | 0.00118 average fractional NGS count over selection days 2 and 3 (reads of this peptide / all reads for the bait, averaged over … |
| chain 1 P9T | 0.000558 average fractional NGS count over selection days 2 and 3 (reads of this peptide / all reads for the bait, averaged over … |
| chain 1 P9N | 0.000239 average fractional NGS count over selection days 2 and 3 (reads of this peptide / all reads for the bait, averaged over … |
| chain 1 P9L | 0.000514 average fractional NGS count over selection days 2 and 3 (reads of this peptide / all reads for the bait, averaged over … |
| chain 1 P9Q | 0.000144 average fractional NGS count over selection days 2 and 3 (reads of this peptide / all reads for the bait, averaged over … |
| chain 1 P9V | 0.000276 average fractional NGS count over selection days 2 and 3 (reads of this peptide / all reads for the bait, averaged over … |
| chain 1 P9S | 0.000162 average fractional NGS count over selection days 2 and 3 (reads of this peptide / all reads for the bait, averaged over … |
| chain 1 P9R | 8.13e-05 average fractional NGS count over selection days 2 and 3 (reads of this peptide / all reads for the bait, averaged over … |
| chain 1 D4K | 0.000375 average fractional NGS count over selection days 2 and 3 (reads of this peptide / all reads for the bait, averaged over … |
| chain 1 D4V | 0.00269 average fractional NGS count over selection days 2 and 3 (reads of this peptide / all reads for the bait, averaged over … |
| chain 1 D4M | 0.0013 average fractional NGS count over selection days 2 and 3 (reads of this peptide / all reads for the bait, averaged over … |
| chain 1 D4A | 0.000274 average fractional NGS count over selection days 2 and 3 (reads of this peptide / all reads for the bait, averaged over … |
| chain 1 D4N | 0.00132 average fractional NGS count over selection days 2 and 3 (reads of this peptide / all reads for the bait, averaged over … |
| chain 1 D4I | 0.00256 average fractional NGS count over selection days 2 and 3 (reads of this peptide / all reads for the bait, averaged over … |
| chain 1 D4L | 0.000198 average fractional NGS count over selection days 2 and 3 (reads of this peptide / all reads for the bait, averaged over … |
| chain 1 D4P | 0.00043 average fractional NGS count over selection days 2 and 3 (reads of this peptide / all reads for the bait, averaged over … |
